In series [1] the target is T1, SpCas9-NLS (CAS9PROT, Sigma-Aldrich) (UniProt Q99ZW2 1-1368). Briefly: EMSA; apparent Kd, high nanomolar; 20 nM RNA, Cas9 0-1000 nM; no gRNA; 20 mM Tris-HCl pH 7.4, 150 mM KCl, 5 mM MgCl2, 5 mM EDTA, 1 mM DTT, 0.1% BSA, 5% glycerol, 0.01% Tween 20, 50 ug/mL heparin, 200 U/mL Superase-In; 30 min at room temperature; gel at 4 C. The settings on record: protein: commercial; tags: NLS; label: 5' IRDye 800CW; GU-loop upstream of 5-nt stem.

For series [2], the target named is T1, SpCas9-NLS (CAS9PROT, Sigma-Aldrich). Briefly: competition; does not outcompete 20 nM labeled CDIP1 RNA; Cas9 640 nM; 1:1 to 1:32 to Cas9; 20 mM Tris-HCl pH 7.4, 150 mM KCl, 5 mM MgCl2, 5 mM EDTA, 1 mM DTT, 0.1% BSA, 5% glycerol, 0.01% Tween 20, 50 ug/mL heparin, 200 U/mL Superase-In; 30 min at room temperature; gel at 4 C. The settings on record: protein: commercial; tags: NLS.

The target is the same in series [3]. In words: competition; outcompetes 20 nM labeled CDIP1 RNA; Cas9 640 nM; 1:1 to 1:32 to Cas9; 20 mM Tris-HCl pH 7.4, 150 mM KCl, 5 mM MgCl2, 5 mM EDTA, 1 mM DTT, 0.1% BSA, 5% glycerol, 0.01% Tween 20, 50 ug/mL heparin, 200 U/mL Superase-In; 30 min at room temperature; gel at 4 C. The settings on record: protein: commercial; tags: NLS; guide RNA hairpins.

T1 sequence (Q99ZW2 whole entry): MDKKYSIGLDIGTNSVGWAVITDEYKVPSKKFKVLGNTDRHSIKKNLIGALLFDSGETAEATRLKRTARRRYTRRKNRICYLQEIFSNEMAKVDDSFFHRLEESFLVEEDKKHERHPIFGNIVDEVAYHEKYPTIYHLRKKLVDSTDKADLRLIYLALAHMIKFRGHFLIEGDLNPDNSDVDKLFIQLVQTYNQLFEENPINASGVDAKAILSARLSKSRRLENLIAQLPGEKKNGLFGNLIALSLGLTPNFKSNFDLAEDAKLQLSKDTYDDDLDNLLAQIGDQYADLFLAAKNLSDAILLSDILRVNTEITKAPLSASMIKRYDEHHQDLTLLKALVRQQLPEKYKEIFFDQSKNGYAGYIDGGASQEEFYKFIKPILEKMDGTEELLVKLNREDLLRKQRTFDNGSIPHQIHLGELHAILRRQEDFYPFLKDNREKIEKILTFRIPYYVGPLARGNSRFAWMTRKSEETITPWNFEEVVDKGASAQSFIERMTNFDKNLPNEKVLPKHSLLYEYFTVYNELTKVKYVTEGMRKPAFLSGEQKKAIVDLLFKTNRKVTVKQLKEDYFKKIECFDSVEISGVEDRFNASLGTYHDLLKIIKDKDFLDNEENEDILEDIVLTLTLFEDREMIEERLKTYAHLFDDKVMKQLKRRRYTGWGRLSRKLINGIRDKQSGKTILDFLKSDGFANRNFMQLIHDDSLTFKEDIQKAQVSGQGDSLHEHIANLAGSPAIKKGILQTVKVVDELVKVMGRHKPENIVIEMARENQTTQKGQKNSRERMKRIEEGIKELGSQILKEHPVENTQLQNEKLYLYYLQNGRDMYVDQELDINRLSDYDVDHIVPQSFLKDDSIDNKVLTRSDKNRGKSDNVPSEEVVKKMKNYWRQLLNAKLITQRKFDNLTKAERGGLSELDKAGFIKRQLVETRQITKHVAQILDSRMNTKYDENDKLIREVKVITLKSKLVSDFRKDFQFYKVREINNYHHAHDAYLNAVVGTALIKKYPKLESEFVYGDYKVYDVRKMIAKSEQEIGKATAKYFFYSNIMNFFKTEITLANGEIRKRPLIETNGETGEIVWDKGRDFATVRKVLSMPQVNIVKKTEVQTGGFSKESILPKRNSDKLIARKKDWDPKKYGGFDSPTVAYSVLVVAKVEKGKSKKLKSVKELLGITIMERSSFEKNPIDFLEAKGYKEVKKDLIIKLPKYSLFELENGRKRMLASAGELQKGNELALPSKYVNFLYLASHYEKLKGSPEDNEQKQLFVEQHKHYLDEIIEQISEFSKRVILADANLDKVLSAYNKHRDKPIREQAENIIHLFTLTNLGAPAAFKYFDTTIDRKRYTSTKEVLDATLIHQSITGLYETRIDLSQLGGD

B1: CDIP1 5' UTR RNA (Fig. 2) (structured_RNA)
RNA: UACCCGCCUCCUUGUGACAGAAGUGCGACUGCCAGCUGCCGAGGCGUUCGGUCCUGCUGUUGCGGCCGCUGCCCCAGGGCUGCGGGGACGGUGAGUCGACUGGA
In the case of B1, in series [1], the Kd was over 100 nM.

B2: non-specific (N.S.) RNA, unlabeled (ssRNA)
RNA: CUAUGCGGCAUCAGAGCAGAUUGUACUGAGAGUGCACCAUAUGCGGUGUGAAAUACCGCACAGAUGCGUAAGGAGAAAAUACCGCAUCAGGCGCCAUUCGCCAUUCAGGCUGCGCAACUGUUGG
In the case of B2, in series [2], the binding result is on record as “no binding”.

B3: Cas9 gRNA (structured_RNA)
RNA: AUUAAUCGGUGGGAGUAUUCGUUUAAGAGCUAUGCUGGAAACAGCAUAGCAAGUUUAAAUAAGGCUAGUCCGUUAUCAACUUGAAAAAGUGGCACCGAGUCGGUGCU
On to B3, for which the binding result in series [3] is “binds”.

Source of the values: publication PMC8891275, “Crosstalk between CRISPR-Cas9 and the human transcriptome”.
